This is an account of results in PMC7138024 (Journal of natural products, 2014).

One may read the IC50 as the concentration that gives 50% inhibition.

In the experiment the target is cruzain (Trypanosoma cruzi, UniProt P25779). The experiment is classed as biochemical. The note with it: read-out: IC50 (μM) cruzain; triplicate; phosphate buffer pH 6.3, 37 °C.
Chain of cruzain (P25779 123-467): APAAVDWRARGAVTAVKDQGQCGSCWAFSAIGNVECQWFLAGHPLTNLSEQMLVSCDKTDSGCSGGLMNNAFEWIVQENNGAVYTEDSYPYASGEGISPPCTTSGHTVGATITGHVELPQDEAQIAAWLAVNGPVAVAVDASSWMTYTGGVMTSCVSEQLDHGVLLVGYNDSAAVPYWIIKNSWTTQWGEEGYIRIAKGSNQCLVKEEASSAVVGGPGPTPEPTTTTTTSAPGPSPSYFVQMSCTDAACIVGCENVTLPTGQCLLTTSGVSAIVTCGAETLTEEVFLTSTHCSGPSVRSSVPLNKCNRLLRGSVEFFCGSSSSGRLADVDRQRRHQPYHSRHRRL

B1: cystatin (protein)
chain: SEDRSRLLGAPVPVDENDEGLQRALQFAMAEYNRASNDKYSSRVVRVISAKRQLVSGIKYILQVEIGRTTCPKSSGDLQSCEFHDEPEMAKYTTCTFVVYSIPWLNQIKLLESKCQ
modifications: two disulfides; Limits are the mature chain
With B1, the IC50 was 0.0085 ± 0.025 µM.
